# Assay results taken from paper PMC1373645, “Lactate production yield from engineered yeasts is dependent from the host background, the lactate dehydrogenase source and the lactate export” (Microbial Cell Factories, 2006).
# System: T1, CC(=O)C(=O)O
# T1 construct: full length, TTG start changed to ATG, untagged, expressed in S. cerevisiae GRF18U; crude cell extract; homotetramer
# Experiment: cells, lysate or membranes
# Assay type: biochemical, Lactiplantibacillus plantarum
# Conditions: NADH, acetate buffer pH 5.6, 25 °C, no fructose 1,6-diphosphate, Table 2 prints 1,50
substance,measurement,value
"L. plantarum LDH (LpLDH, plLDH) (Lactiplantibacillus plantarum WCFS1; C302S/H54D)",Km,1504 µM
